The values below come from the RNAGym collection of RNA variant scans (doi:10.7554/elife.80360).

The labels stand for the following.
B1: HDV Ribozyme (parent)
chain: GGCCGGCAUGGUCCCAGCCUCCUCGCUGGCGCCGGCUGGGCAACAUUCCGAGGGGACCGUCCCCUCGGUAAUGGCGAAUGGGACCCA

Variants of B1 are the subject of the data set. The experiment in a line: self-cleavage, relative activity (ratio to wild type); higher = more cleavage; co-transcriptional.
As to GGGCGGCACGGUCCCAGCCUCCUCGCUGGCGCCGGCUGGGCAACAUUCCGAGGGGACCGUCCCCUCGGUAAUGGCGAAUGGGACCCA, the self-cleavage amounted to 0.554.
As for GGGCGGCAUGGUCCCAGCCUCCUCGCUGGCGCCGGCUGGGCAACAUUCCGAGGGGACCGUCCCCUCGGUAAGGGCGAAUGGGACCCA, the figure is 0.345; as for GGUCGGCAUGGUCCCAGCCUCCUCGCUGGCGCCGGCUGGGCAACAUUCCGAGGGGACCGUCCCCUCGGUAAUGGCGUAUGGGACCCA, 0.354.
With GGUCGGCAUGGUCCCAGCCUCCUCGCUGGCGCCGGCUGGGCAACAUUCCGAGGGGACCGUCCCCUCGGUAAUGGCGGAUGGGACCCA, the self-cleavage turned out to be 0.739.
The figure for GGUCGGCAUGGUCCCAGCCUCCUCGCUGGCGCCGGCUGGGCCACAUUCCGAGGGGACCGUCCCCUCGGUAAUGGCGAAUGGGACCCA is 0.181; for GGGCGGCAUGGUCCCAGCCUCCUCGCUGGCGCCGGCUGGGCAACAUUCCGAGGUGACCGUCCCCUCGGUAAUGGCGAAUGGGACCCA it is 0.702.
As to GGGCGGCAUGGUCCCAGCCUCCUCGCUGGCGCCGGCUGGGCAACAUUCCGAGGGGACCGUCCCCUCGGUAAUGGCGAAUGGUACCCA, the self-cleavage was found to be 0.166.
Turning to GGGCGGCAUGGUCCCAGCCUCCUCGCUGGCGCCGGCUGGGCAACAUUCCGAGGGGACCGUCCCCUCGGUAAUGGCGAAUGGAACCCA, the self-cleavage was found to be 0.19.
As for GGGCGGCAUGGUCCCAGCCUCCUCGCUGGCGCCGGCUGGGCAACAUUCCGAGGGGACCGGCCCCUCGGUAAUGGCGAAUGGGACCCA, the figure is 0.773; as for GGGCGGCAUGGUCCCAGCCUCCUCGCUGGCGCCGGCUGGGCAACAUUCCGAGGGGACCGACCCCUCGGUAAUGGCGAAUGGGACCCA, 0.772; as for GGGCGGCAUGGUCCCAGCCUCCUCGCUGGCGCCGGCUGGGCAACAUUCCGAGGGGACCGCCCCCUCGGUAAUGGCGAAUGGGACCCA, 0.748.
For GGUCGGCAUGGUCCAAGCCUCCUCGCUGGCGCCGGCUGGGCAACAUUCCGAGGGGACCGUCCCCUCGGUAAUGGCGAAUGGGACCCA, the self-cleavage is 0.481.
The figure for GGGCGGCAUGGUCCCAGCCUCCUCGCAGGCGCCGGCUGGGCAACAUUCCGAGGGGACCGUCCCCUCGGUAAUGGCGAAUGGGACCCA is 0.308; for GGGCGGCAUGGUCCCAGCCUCCUCGCUGGCGCCGGCUGGGCAACAGUCCGAGGGGACCGUCCCCUCGGUAAUGGCGAAUGGGACCCA it is 0.248; for GGGCGGCAUGGUCCCAGCCUCCUCGCUGGCGCCGGCUGGGCAACAUUCCGAGGGGACCGUCCCCUCGGUAAUCGCGAAUGGGACCCA it is 0.272.
The figure for GGUCGGCAUGGUCCCAGCCUCCUCGCUGGCGCCGGCUGGGCAACAUUCCGAGGGGCCCGUCCCCUCGGUAAUGGCGAAUGGGACCCA is 0.675.
GGGCGGCAUGGUCCCAGCCUCCUCGCUGGCGCCGGCUGGGCAACAUUCCGAGGGGACCGUCCCCUCGGUAAUGACGAAUGGGACCCA: the self-cleavage was found to be 0.114.
The figure for GGUCGGCAUGGUCCCAGCAUCCUCGCUGGCGCCGGCUGGGCAACAUUCCGAGGGGACCGUCCCCUCGGUAAUGGCGAAUGGGACCCA is 0.0573.
With GGGCGGCAUGGUCCCAGCCUCCUCGCUGGCGCCGGCUGGGCAACAUUCCGAGGGGACCGUCCCCUCGGUAAUGGCGAAUCGGACCCA, the self-cleavage is 0.0665.
The figure for GGGCGGCAUGGUCCCAGCCUCCUCGCUGGCGCCGGCUGGGCAACAUUCCGAGGGGACCGUCCCCUCGGUAAUGGCGAAUAGGACCCA is 0.0911; for GGGCGGCAUGGUCCCAGCCUCCUCGCUGGCGCCGGCUGGGCAACAUUCCGAGGGUACCGUCCCCUCGGUAAUGGCGAAUGGGACCCA it is 0.821.
The figure for GGGCGGCAUGGUCCCAGCCUCCUCGCUGGCGCCGGCUGGGCAACAUUCCGAGGGAACCGUCCCCUCGGUAAUGGCGAAUGGGACCCA is 0.76.
As for GGGCGGCAUGGUCCCAGCCUCCUCGCUGGCGCCGGCUGGGCAACAUUCCGAGGGGACCGUCCCCUCGUUAAUGGCGAAUGGGACCCA, the figure is 0.383.
For the variant GGGCGGCAUGGUCCCAGCCUCCUCGCUGGCGCCGGCUGGGCAACAUUCCGAGGGGACCGUCCCCUCGCUAAUGGCGAAUGGGACCCA, the self-cleavage was found to be 0.531.
As for GGGCGGCAUGGUCCCAGCCCCCUCGCUGGCGCCGGCUGGGCAACAUUCCGAGGGGACCGUCCCCUCGGUAAUGGCGAAUGGGACCCA, the figure is 0.0489.
As for GGUCGGCAUGGUCCCGGCCUCCUCGCUGGCGCCGGCUGGGCAACAUUCCGAGGGGACCGUCCCCUCGGUAAUGGCGAAUGGGACCCA, the figure is 0.675.
As for GGUCGGCAUGGUCCCAGCCUCCUCGCUGGCGCCGGCUGGGCAACAUUCCGAGGGGACCGUCCCCUCGGUAAUGGCGAAUGGGACCCG, the figure is 0.752; as for GGUCGGCAUGGUCCCAGCCUCCUCGCUGGCGCCGGCUGGGCAACAUUCCGAGGGGACCGUCCCCUCGGUAAUGGCGAAUGGGUCCCA, 0.17.
For the variant GGGCGGCAUGGUCCCAGCCUCCUCGCUGGCGCCGGCUGGGCAACAUUCCGAGGGGACCGUCCCCUCGGCAAUGGCGAAUGGGACCCA, the self-cleavage worked out at 0.653.
As for GGGCGGCAUGGUCCCAGCCUCCUCGCUGGCGCCGGCCGGGCAACAUUCCGAGGGGACCGUCCCCUCGGUAAUGGCGAAUGGGACCCA, the figure is 1.08.
The figure for GGGCGGCAUGGUCCCAGCCUCCCCGCUGGCGCCGGCUGGGCAACAUUCCGAGGGGACCGUCCCCUCGGUAAUGGCGAAUGGGACCCA is 0.48; for GGUCGGCAUGGUCCCAGCCUCCUCGCUGGCGCCGGCUGGGCAACUUUCCGAGGGGACCGUCCCCUCGGUAAUGGCGAAUGGGACCCA it is 0.432.
